Tested on: PSMA-expressing tumours
Test: Ex vivo biodistribution across both mouse models (DU145-PSMA+ and LNCaP xenografts)
Format: in vivo, mice
Conditions: both tracers, 2 h post-injection
Description: The biodistribution of [^99mTcO2(DP^An-PSMAt)2]^+ and [^99mTcO2(DP^MEP-PSMAt)2]^+ was studied using SPECT/CT imaging and ex vivo biodistribution methods. In these studies, [^99mTcO2(DP^An-PSMAt)2]^+ and [^99mTcO2(DP^MEP-PSMAt)2]^+ were used directly from kit-based formulations, without further purification, mimicking procedures used in clinical radiopharmacies and nuclear medicine departments. Mice were injected with [^99mTcO2(DP^An-PSMAt)2]^+ or [^99mTcO2(DP^MEP-PSMAt)2]^+ (4–5 MBq), containing 3 μg (2.6 nmol) of DP^An-PSMAt or 3.5 μg (2.6 nmol) of (DP^MEP-PSMAt) via the tail-vein, and culled 2 h post-injection, followed by dissection, organ/tissue weighing and counting. […]
For all animals, significant concentrations of ^99mTc radioactivity (2–5 %ID g^−1) were measured in PSMA-expressing tumours 2 h post-injection, and although ^99mTc tumour concentrations were consistently higher for animals administered [^99mTcO2(DP^An-PSMAt)2]^+, there were no statistically significant differences between [^99mTcO2(DP^An-PSMAt)2]^+ and [^99mTcO2(DP^MEP-PSMAt)2]^+ in either mouse model. For both tracers, there were also significant concentrations of ^99mTc radioactivity in the spleen, which is known to express low levels of PSMA and accumulate PSMA-targeted radiotracers,[9,10] and the liver. […]

Row | SMILES | ^99mTc radioactivity concentration in kidneys
1 | COCCOc1ccc(P(/C(C(=O)O)=C(/C(=O)NCCOCCOCCOCCOCCC(=O)NCCCC[C@H](NC(=O)N[C@@H](CCC(=O)O)C(=O)O)C(=O)O)P(c2ccc(OCCOC)cc2)c2ccc(OCCOC)cc2)c2ccc(OCCOC)cc2)cc1 [[^99mTcO2(DP^MEP-PSMAt)2]^+, metal not drawn] | 40–90 %ID g^−1
2 | COc1ccc(P(/C(C(=O)O)=C(/C(=O)NCCOCCOCCOCCOCCC(=O)NCCCC[C@H](NC(=O)N[C@@H](CCC(=O)O)C(=O)O)C(=O)O)P(c2ccc(OC)cc2)c2ccc(OC)cc2)c2ccc(OC)cc2)cc1 [[^99mTcO2(DP^An-PSMAt)2]^+, metal not drawn] | 40–90 %ID g^−1

Source: paper PMC12435366, “Maleic anhydride derived diphosphines: adaptable chelators for receptor-targeted ^99mTc, ^64Cu and ^188Re radiotracers” (Chemical Science, 2025)
